Eleven molecules from US7786071B2 (priority 2003, dated 2010) can be followed below.

Like-named read-outs stand apart in the source and are kept apart here.

Data set [1] is classed as biochemical. To be noted: read-out: 2NA hydrolysis KM.
Data set [2] is classed as biochemical.
Data set [3] is classed as biochemical. The source holds these as a separate data set.
Data set [4] is classed as biochemical. The note with it: read-out: DEPCyC hydrolysis KM.
Where [5] appears, read: read-out: Paraxon hydrolysis KM.

B1: G3G3: third generation trx-rPON3 variant; SEQ ID NO: 47, 53 (protein)
chain: MAKLLLLTLLGASLAFVGERLLAFRDSFGAVQELEPVEPQNCVLIEGLENGSEDIDILPSGLAFISSGLKYPGMPNFAPDEPGKIFLIDMNEKNPRAQALEISGGFDKESFNPHGISTFIDKDHTVYLYVVNHPNMDSTVEVFKFEEQQHSLIHLKTIKHELLKSVNDIVVLGPEQFYATRDHYFTNSLLSFFEMILDLRWTSVLFYSPREVKVVAKGFSSANGITVSLDKKYVYVADVAAKNIHIMEKHDNWDLTELKVIHLDTLVDNLTVDPATGDILAGCHPNPMKLLNYNPEDPPGSEVLRIQNVLSEKPRVSTVYANNGSVLQGTSVASVYHGKILIGTIFHKTLYCDL
modifications: thioredoxin fusion; In vitro evolved PON variant G3G3
As usually defined, the Km is the substrate concentration at which the rate is half of its maximum. For B1, the Km in data set [1] stood at 650 µM.

B2: G3H9: third generation trx-rPON3 variant; SEQ ID NO: 48, 54 (protein)
chain: MAKLLLLTLLGVGLSLVGERLLAFRNSFGAVQELESVEPQNCVLIEGLENGSEDIDILPSGLAFISSGLKYPGMPNFAPDEPGKIFLIDMNEKNPRAQELKISNGFEKESFNPHGISTFIDKDHTVYLYVVNHPNMDSTVEIFKFEEQQRSLVHLKTIKHELLKSVNDIVVLGPEQFYATRDHYFTNSLLSFFEMILDLRWTSVVFYSPKEVKVVAKGFSSANGITVSLDKKYVYVADATAKNVHVMEKHDNWDLTPVKVIQLGTLVDNLTVDPATGDILAGCHPNPMKLLNYNPEDPPGSEVLRIQNVLSEKPRVSTVYTNDGSVLQGTSVASVYQGKILIGTIFHKALYCDL
modifications: thioredoxin fusion; In vitro evolved PON variant G3H9
Turning to B2, in data set [2] (setting [5]), the Km worked out at 800 µM.

B3: G2D6: second-round directly evolved PON1 variant, thioredoxin-fused; SEQ ID NO: 27 (DNA), 59 (protein) (protein)
chain: MAKLTALTLLGLGLALFDRQKSSFQTRFNVHREVTPVELPNCNLVKGIDNGSEDLEILPNGLAFISSGLKYPGIMSFDPDKSGKILLMDLNEEDPVVLELGITGSTFDLSSFNPHGISTFTDEDNTVYLLVVNHPDSSSTVEVFKFQEKERSLLHLKTIRHKLLPSVNDIVAVGPESFYATNDHYFADPYLKSWEMHLGLAWSFVTYYSPNDVRVVAEGFDFANGINISPDGKYVYIAELLAHKIHVYEKHANWTLTPLKSLDFNTLVDNISVDPVTGDLWVGCHPNGMRIFYYDPENPPGSEVLRIQDILSKEPKVTVVYAENGTVLQGSTVAAVYKGKLLIGTVFHKALYCDL
modifications: thioredoxin fusion; In vitro evolved PON variant G2D6
B3: in data set [3] (pH 8), the “kcat (PheAc)” value came out at 562 s⁻¹. The Km in data set [3] (pH 8, read-out: KM(PheAc)) is 320 µM; in data set [2] (pH 8, read-out: KM(Paraoxon)), 100 µM. Also, the “kcat(Paraoxon)” value in data set [2] (pH 8) turned out to be 0.98 s⁻¹.

B4: G1B11: first generation trx-rPON3 variant; SEQ ID NO: 44, 50 (protein)
chain: MAKLLLLTLLGACLALIGERLLNFRERVSTTREIKATEPQNCHLIEGLENGSEDIDILPSGLAFISSGLKYPGMPNFAPDEPGKIFLIDMNEQNPRAQALEISGGFDKELFNPHGISTFIDKDHTVYLYVVNHPNMDSTVEIFKFEEQQHSLIHLKTLKHELLKSVNDIVVLGPEQFYATRDHYFTNYVLALLKMFLDLRWTSVLFYSPKEVKVVAKGFSSANGITVSLDKKYVYVADATAKNVHVMEKHDNWDLTELKVIQLGTLVDNLTVDPATGDILAGCHPNPMKLLIYNPEDPPGSEVLRIQDVLSEKPRVSTVYANNGSVLQGSTVASVYQGKILIGTIFHKTLYCVL
modifications: thioredoxin fusion; In vitro evolved PON variant G1B11
For B4, the Km in data set [1] was 180 µM; in data set [2] (setting [5]) it was 1100 µM.

B5: G2C2: second-generation trx-rPON3 variant; SEQ ID NO: 45, 51 (protein)
chain: MAKLLLLTLLGVGLSLVGERLLAFRNSFGAVQELEPVEPQNCVLIEGLENGSEDIDILPSGLAFISTGLKYPGMPNFAPDEPGKIFLMDLNEQNPRAQALEISGGFDKELFNPHGISTFIDKDNTVYLYVVNHPHMESTVEIFKFEEQQHSLIHLKTIKHELLKSVNDIVVLGPEQFYATRDHYFTNYVLARLEMILDLRWTYVLFYSPREVKVVAKGFSSANGITVSLDKKYVYVADATAKNVHVMEKHDNWDLTQLKVIQLGTLVDNLSVDPATGDILAGCHPNPMKLLNYNPEDPPGSEVLRIQNVLSEKPRVSTVYTNDGSVLQGTSVASVYQGKILIGTIFHKALHCDL
modifications: thioredoxin fusion; In vitro evolved PON variant G2C2
On to B5, for which the results for the Km in data set [1] and in data set [2] (setting [5]) were 260 µM and 800 µM, respectively.

B6: G2E6: second-round directly evolved PON1 variant whose 3D structure was solved; SEQ ID NO: 28 (DNA), 60 (protein); 'wt' of Table 12 (protein)
chain: MAKLTALTLLGMGLALFDRQKSSFQTRFNVHREVTPVELPNCNLVKGIDNGSEDLEILPNGLAFISSGLKYPGIMSFDPDKSGKILLMDLNEKEPAVSELEIIGNTLDISSFNPHGISTFIDDDNTVYLLVVNHPGSSSTVEVFKFQEEEKSLLHLKTIRHKLLPSVNDIVAVGPEHFYATNDHYFIDPYLKSWEMHLGLAWSFVTYYSPNDVRVVAEGFDFANGINISPDGKYVYIAELLAHKIHVYEKHANWTLTPLRVLSFDTLVDNISVDPVTGDLWVGCHPNGMRIFFYDAENPPGSEVLRIQDILSEEPKVTVVYAENGTVLQGSTVAAVYKGKLLIGTVFHKALYCDL
modifications: In vitro evolved PON variant G2E6
With B6, the “kcat (PheAc)” value in data set [3] (pH 8) came out at 965 s⁻¹. The Km in data set [3] (pH 8, read-out: KM(PheAc)) turned out to be 430 µM; in data set [2] (pH 8, read-out: KM(Paraoxon)) it was 89 µM. The “kcat(Paraoxon)” value in data set [2] (pH 8) came to 0.87 s⁻¹.

B7: G1A7: first generation trx-rPON3 variant; SEQ ID NO: 43, 49 (protein)
chain: MAKLLLLTLLGVGLSLVGERLLAFRNSFGAVQELEPVEPQNCHLIEGLENGSEDIDILPSGLAFISSGLKYPGMPAFAPDKPGRIFLMDLNEQNPEAQALEISGGLDQESLNPHGISTFIDKDSTAYLYVVNHPNMDSTVEIFKFEEQQRSLVHMKTIKHELLKSVNNIVVLGPEQFYATRDHYFTNSLLSFFEMILDPHWTSVVFYSPREVKVVAKGFSSANGITVSLDKKYVYVADATAKNVHVMEKHDNWDLTELKVIHLDTLVDNLTVDPATGDILAGCHPNPMKLLIYNPEDPPGSEVLRIQDSLSDKPRVSTLYANNGSVLQGTSVASVYHGKILIGTIFHKTLYCDL
modifications: thioredoxin fusion; In vitro evolved PON variant G1A7
In the case of B7, the results for the Km in data set [1] and in data set [2] (setting [5]) were 160 µM and 2500 µM, respectively.

B8: G3A5: third generation trx-rPON3 variant; SEQ ID NO: 46, 52 (protein)
chain: MGELLLLTLLGASLAFVGEMFLAFRERVNASREVEPVEPQNCVLIEGLENGSEDIDILPNGLAFISSGLKYPGMPNFAPDEPGKIFLMDLNEQNPRAQELEISNGFEKESFNPHGISTFIDKDHTVYLYVVNHPNMDSTVEIFKFEERQRSLVHLKTIKHELLKSVNDIVVLGPEQFYATRDRYFTNYVLALLEMILDPHWTSVVFYSPKEVKVVAQGFSSANGITVSLDKKYVYVADATAKNVHVMEKHDNWDLTPVKVIQLGTLVDNLSVDPATGDILAGCHPNPMKLLNYNPEDPPGSEVLRIRNVLSEKPRVSTVYTNDGSVLQGTSVASVYQGKILIGTIFHKTLYCDL
modifications: thioredoxin fusion; In vitro evolved PON variant G3A5
As to B8, the Km in data set [2] (setting [5]) was 510 µM.

B9: G1C4: first-round directly evolved PON1 variant, thioredoxin-fused; SEQ ID NO: 26 (DNA), 58 (protein) (protein)
chain: MAKLLALTLVGLGLALFDGQKSSFQTRFNVHREVTPVELPNCNLVKGIETGAEDLEILPNGLAFISSGLKYPGIMSFDPDKSGKILLMDLNEEDPVVLELGITGSTFDLSSFNPHGISTFTDEDNTVYLLVVNHPDSSSTVEVFKFQEKEKSLLHLKTIRHKLLPSVNDIVAVGPEHFYATNDHYFIDPYLKSWEMHLGLAWSFVTYYSPNDVRVVAEGFDFANGINISPDGKYVYIAELLAHKIHVYEKHANWTLTPLKSLDFNTLVDNISVDPVTGDLWVGCHPNGMRIFYYDPKNPPASEVLRIQDILSEDPKITVVYAENGTVLQGTTVASVYKGKLLIGTVFHKALYCDL
modifications: thioredoxin-fused; In vitro evolved PON variant G1C4
As to B9, the “kcat (PheAc)” value in data set [3] (pH 8) was found to be 552 s⁻¹. Further, the Km in data set [3] (pH 8, read-out: KM(PheAc)) is 540 µM; in data set [2] (pH 8, read-out: KM(Paraoxon)) it was 120 µM. Further, the “kcat(Paraoxon)” value in data set [2] (pH 8) amounted to 0.54 s⁻¹.

B10: G3C9.10: G3C9 variant with mutations L69V and E218D; SEQ ID NO: 62, 63 (protein)
chain: MAKLTALTLLGLGLALFDGQKSSFQTRFNVHREVTPVELPNCNLVKGVDNGSEDLEILPNGLAFISSGVKYPGIMSFDPDKSGKILLMDLNEEDPVVLELGITGNTLDISSFNPHGISTFTDEDNTVYLLVVNHPDSSSTVEVFKFQEEEKSLLHLKTIRHKLLPSVNDIVAVGPEHFYATNDHYFADPYLKSWEMHLGLAWSFVTYYSPNDVRVVADGFDFANGINISPDGKYVYIAELLAHKIHVYEKHANWTLTPLKSLDFDTLVDNISVDPVTGDLWVGCHPNGMRIFYYDPKNPPGSEVLRIQDILSEEPKVTVVYAENGTVLQGSTVAAVYKGKLLIGTVFHKALYCEL
modifications: In vitro evolved PON variant G3C9.10
With B10, the Km in data set [3] (read-out: Phenylacetate hydrolysis KM) came to 760 µM; in data set [4], 50 µM.

B11: RabPON3: wild-type rabbit PON3 expressed in E. coli fused to thioredoxin; SEQ ID NO: 30, 41 (protein, listed as Oryctolagus cuniculus)
chain: MAKLLLLTLLGASLAFVGERLLAFRNSFGAVQELEPVEPQNCVLIEGLENGSEDIDILPSGLAFISSGLKYPGMPNFAPDEPGKIFLIDMNEKNPRAQELEISNGFEKESFNPHGISTFIDKDHTVYLYVVNHPHMKSTVEIFKFEEQQRSLVHLKTIKHELLKSVNNIVVLGPEQFYATRDHYFTNYVLALLEMFLDLHWTSVLFYSPKEVKVVAKGFSSANGITVSLDKKYVYVADATAKNVHVMEKHDNWDLTELKVIHLDTLVDNLSVDPATGDILAGCHPNGMKLLNYNPEDPPGSEVLRIQNVLSEKPRVSTVYTNDGSVLQGSTVASVYQGKILIGTIFHKTLYCVL
modifications: thioredoxin fusion
Turning to B11, the Km came to 211 µM in data set [1] and 1300 µM in data set [2] (setting [5]).
